Columns and labels:
[1] = target: HiLyteFluor488-labeled amyloid-β(1-40) fibrils (UniProt P05067)
[2] = target: HiLyteFluor488-labeled amyloid-β(1-40) fibrils (UniProt P05067); assay: confocal two-color coincidence detection
[3] = target: HiLyteFluor488-labeled amyloid-β(1-40) oligomers formed from the disaggregation of fibrils (UniProt P05067); assay: confocal two-color coincidence detection
HiLyteFluor488-labeled amyloid-β(1-40) oligomers formed from the disaggregation of fibrils, sequence (P05067 672-711): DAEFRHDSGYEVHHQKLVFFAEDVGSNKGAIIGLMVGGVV

HiLyteFluor488-labeled amyloid-β(1-40) fibrils, sequence (P05067 672-711): as above

- Kd [1]: 1200 nM
Substance: AlexaFluor647-labeled αB-crystallin (from UniProt P02511 1-175) (natural protein)
- koff [2]: 4.4e-05 s⁻¹
- half-time for dissociation [3]: 17 h
- stoichiometry N (αB-crystallin molecule per Aβ monomer) [3]: 1
